Test results published in the DeepSol protein solubility set.

Experiment: soluble on expression in E. coli; label from the status in PepcDB or PDB records
In the case of “MSASIRDAGVADLPGILAIYNDAVGNTTAIWNETPVDLANRQAWFDARARQGYPILVASDAAGEVLGYASYGDWRPFEGFRGTVEHSVYVRDDQRGKGLGVQLLQALIERARAQGLHVMVAAIESGNAASIGLHRRLGFEISGQMPQVGQKFGRWLDLTFMQLNLDPTRSAP”, the “soluble on expression in E. coli” value is reported as “soluble”.
For “SQLPPGKPEIFKCRSPNKETFTCWWRPGTDGGLPTNYSLTYHREGETLMHECPDYITGGPNSCHFGKQYTSMWRTYIMMVNATNQMGSSFSDELYVDVTYIVQPDPPLELAVEVKQPEDRKPYLWIKWSPPTLIDLKTGWFTLLYEIRLKPEKAAEWEIHFAGQQTEFKILSLHPGQKYLVQVRCKPDHGYWSAWSPATFIQIPSDFTMND”, the “soluble on expression in E. coli” value was “soluble”.
In the case of “MQVNFSSFLDNFFAMQVCREMTRNDVKFAISPQFLRISRHPHIP”, the “soluble on expression in E. coli” value is reported as “not soluble”.
In the case of “DSSALPTKRKTVKLFWRELKLAGGHGVSASRFGPCATLWASLDPVSVDTARLEHLFESRAKEVLPSKKAGEGRRTMTTVLDPKRSNAINIGLTTLPPVHVIKAALLNFDEFAVSKDGIEKLLTMMPTEEERQKIEEAQLANPDIPLGPAENFLMTLASIGGLAARLQLWAFKLDYDSMEREIAEPLFDLKVGMEQLVQNATFRCILATLLAVGNFLNGSQSSGFELSYLEKVSEVKDTVRRQSLLHHLCSLVLQTRPESSDLYSEIPALTRCAKVD”, the “soluble on expression in E. coli” value is reported as “not soluble”.
For “MKVLFVCSGGMSSAIVVNALKKEAEKKGVNMEVHAIGTSEVEEEVKNGWDVVMVAPQVRHRFDSVKKFAEEESIPCGIIPPQAYTPLGGPTLLKTVNDLIR”, the “soluble on expression in E. coli” value was “not soluble”.
For “MSLGNFHTMLDALLEDQEEAVLATIVQVEGSAYRKAGASMLFKKKGRRIGLLSGGCVEEDVFQRISALGDQLTSTLIPYDMRSEDDLSWGMGAGCNGIIHVHAERITQEKRRHYEKVRDCLHSGKAVTSVIKIESSHYLFLTENGHFGNWPDAPLQDIQRTVSTLHLPHFDQTTNMFIQRIEPKPRLILFGAGPDNVPLANLAADTGFSVIVTDWRPAYCTSSLFPKADQLITAFPEQMLSEFQFFPHDAAVVATHHYQHDQTIINFLFSQNLHYIGLLGSANRTKRLLSGKHPPSHFYSPVGLKIGAEGPEEIAVSVVAEIIQTRKRVAVVEGGSHHHHHH”, the “soluble on expression in E. coli” value was “soluble”.
In the case of “MKHHHHHHMTFPGDTAVLVLAAGPGTRMRSDTPKVLHTLAGRSMLSHVLHAIAKLAPQRLIVVLGHDHQRIAPLVGELADTLGRTIDVALQDRPLGTGHAVLCGLSALPDDYAGNVVVTSGDTPLLDADTLADLIATHRAVSAAVTVLTTTLDDPFGYGRILRTQDHEVMAIVEQTDATPSQREIREVNAGVYAFDIAALRSALSRLSSNNAQQELYLTDVIAILRSDGQTVHASHVDDSALVAGVNNRVQLAELASELNRRVVAAHQLAGVTVVDPATTWIDVDVTIGRDTVIHPGTQLLGRTQIGGRCVVGPDTTLTDVAVGDGASVVRTHGSSSSIGDGAAVGPFTYLRPGTALGADGKLGAFVEVKNSTIGTGTKVPHLTYVGDADIGEYSNIGASSVFVNYDGTSKRRTTVGSHVRTGSDTMFVAPVTIGDGAYTGAGTVVREDVPPGALAVSAGPQRNIENWVQRKRPGSPAAQASKRASEMACQQPTQPPDADQTP”, the “soluble on expression in E. coli” value is reported as “soluble”.
With “MSLHEKKKENVPEWQHFDAAIFNKAKKEHKLVLLHLGANWCHWCHVMEEQTYTDPFVLELLNKSYIACKEDHDERQDLTSLYAAYGWPATIVFDADGNELLKEAGFISSDRFIALLKKLVKNPTPMPTDSVQIEPAVASDSSTQQALNTLKKKFYSSLDIEGGGFNYAQKYIDFETFEYAFNHSENDSILTKWLYNSVVNSAGLNDNVWGGVFQYSTHSDWNHLHYEKLLSIQARYIKMYCWYYKRFNDADALSHAESAAKYVQRFLDDPKGGFYNSQDADVTPGEKATEYFKLNNADRIKKGIPAIDKNSYTSDNAEMIEACIILSAATGNNTYLEKAVRCFDFIKKNNKTNNAYAHGSNYTNSISLKDNIAIVKSALLLYRATQDAAYKSEALRIIQEVAGTFYSKKGYMISFIGNSPIKGSYNITENIEACRLLNYCSHVFNEPKYKILAQTIFGFLTNENLVKTMSTEPGILSAYEELNTEPLKAVLMIKNGTELKTDFLNSSLSFPAFYFDNTIYTSTTIPSDKYELFDSFDKNFIVACTASYCSSPMFSKDGFEKFIYRRAFSTEGHHHHHH” the “soluble on expression in E. coli” value was “soluble”.
With “MSLKNNRHFLKFYCIRDLSWLSSVRASFIYSSFESIASSPFSSYIELRKKPVKFLLILFIALTLCDCGRSKETQFYLLTPISPQKNSRNSYNHLQIGVDEVSIPDYMKKPQLMIHQTPHHLTLEEFNQWAGALDKNITLVLTTNLSTLMPGVVVQTSPWNNKFHPDYHLQVMISQFEIDIHGNSTLRAEYFIYRKEELIYKGNAYYHIKVPLISIETLVQSMNTNLTHLTEEIARFFIKNTTKEGHHHHHH” the “soluble on expression in E. coli” value was “not soluble”.
In the case of “TALADVVITGYQTLSKERATGSFDKVDSSVLSSRPTADLSTALQGLVAGMQATEKEDGSIDFLIRGSSSLYADKKPLLVVDGFPIQGDFSSINPNDVESVTVLKDAAAASIWGARSANGVIVVTTKKGKKDK”, the “soluble on expression in E. coli” value is reported as “not soluble”.
In the case of “MSLTSEEERAEQAMAAISQIEPTRRLFVWTLTHGIVEYGSARAPAQHNTVSPQAAIEWVVRRGEPGIFIFKDLHPFIDLAPVKRWLRDAVAGFKGTDKVLVLMSPIQQIPTELEKEVVVVEFPLPGPGELNELLNVHLSQAPDKLRILSDAGREKMVKAALGLTKDEADKVYRKAEVVSGRLTEAEVDIVLSEKKQIIKRNGILEYLEFDDEGHHHHHH”, the “soluble on expression in E. coli” value is reported as “not soluble”.
In the case of “METFRTLLAKAALGNGISSTAYDTAWVAKLGQLDDELSDLALNWLCERQLPDGSWGAEFPFCYEDRLLSTLAAMISLTSNKHRRRRAAQVEKGLLALKNLTSGAFEGPQLDIKDATVGFELIAPTLMAEAARLGLAICHEESILGELVGVREQKLRKLGGSKINKHITAAFSVELAGQDGVGMLDVDNLQETNGSVKYSPSASAYFALHVKPGDKRALAYISSIIQAGDGGAPAFYQAEIFEIVWSLWNLSRTDIDLSDPEIVRTYLPYLDHVEQHWVRGRGVGWTGNSTLEDCDTTSVAYDVLSKFGRSPDIGAVLQFEDADWFRTYFHEVGPSISTNVHVLGALKQAGYDKCHPRVRKVLEFIRSSKEPGRFCWRDKWHRSAYYTTAHLICAASNYDDALCSDAIGWILNTQRPDGSWGFFDGQATAEETAYCIQALAHWQRHSGTSLSAQISRAGGWLSQHCEPPYAPLWIAKTLYCSATVVKAAILSALRLVDESNQ”, the “soluble on expression in E. coli” value is reported as “not soluble”.
For “MFKGSIPALITPFTDNGSVDEKAFAAHVEWQIAEGSNGLVPVGTTGESPTLSHDEHKRVVELCIEVAAKRVPVIAGAGSNNTDEAIELALHAQEAGADALLVVTPYYNKPTQKGLFAHFSAVAEAVKLPIVIYNIPPRSVVDMSPETMGALVKAHKNIIGVKDATGKLDRVSEQRISCGKDFVQLSGEDGTALGFNAHGGVGCISVTANVAPRLCSEFQAAMLAGDYAKALEYQDRLMPLHRAIFMEPGVCGTKYALSKTRGGNRRVRSPLMSTLEPATEAAIDAALKHAGLMN”, the “soluble on expression in E. coli” value was “not soluble”.
In the case of “MTESEVRKLLRQMKELDSQTAFRDFYNMTYDRLFRIAYYYVKQEEWSQEIVLDIFLKLWKQRDTLLDVKNIEDYCFILVKNASLNYLEKESKYTTIHSDSLPEPQEQSYSPEESLISEELFAIYVKALDRLPERCREIFIRIREEKQSYAQVAEELDISIKTVDAQLQKAVSRLKEMISSSG”, the “soluble on expression in E. coli” value is reported as “not soluble”.
In the case of “MGSDKIHHHHHHMINIGLTGWGDHYSLYEDLERQTDKLKTYAGHFPVVELDATYYAIQPERNILKWIKETPDTFEFVVKIHQALTLHADYKTFADTRQELFDQFKNMLEPLHTQKKLAMVLVQFPPWFDCNAQNIKYILYVRQQLQAFPMCVEFRHQSWFSDAFKEQTLAFLTEHQIIHAVVDEPQVKDGSVPLVNRITNEIAFVRYHGRNHYGWTKKDMSDQEWRDVRYLYDYNEQELIDLAQKAQILAQKAKKVYVIFNNNSGGHAANNAKTYQRLLNIEYEGLAPQQLKLF”, the “soluble on expression in E. coli” value is reported as “not soluble”.
In the case of “MHHHHHHSSMDDPIGLFVMRPQDGEVTVGGSITFSARVAGASLLKPPVVKWFKGKWVDLSSKVGQHLQLHDSYDRASKVYLFELHITDAQPAFTGGYRCEVSTKDKFDCSNFNLTVHEAM”, the “soluble on expression in E. coli” value is reported as “soluble”.
For “MPVLALRLTALAALVISVSGCVMEAYGSRARSDAQSWIGLPIQDVIKRFGEPERVTGDAARQKYVWKEYENYSHDYDYTYYEQGHGNTPNSSVLNQKTGTANQSGYYTCIYEFFADASGRVVDATARGECR”, the “soluble on expression in E. coli” value was “not soluble”.
With “MGSDKIHHHHHHMFAMAGFPDKIKTIKKGLDVPIAGEPRQEIDCCARPAKVALLGEEYVGLKPTLLVEVGDRVKKGQTLFEDKKAPGIGFTAPASGVVVEINRGERRVLQSVVIQVEGDEQVTFKAYSDLSRLSREAVQQNLAESGLWTALRTRPFSRVPLLDSEPAAIFVNAMDTNPLAADPRVIIAEQREAFAAGLEVLTYLTSGKIHLCHDAGEALPGADLARVESHRFAGVHPAGLVGTHIHFIAPASLERPVWHLGYQDVIAYGKLFLTGELYTDRVVALGGPTALNPRLLRTQLGAQLSTLVEGEIKPGSNRVVSGSVLAGHTAFGVHDYLGRFHQQISVLAEDAKHQLLPWVRGGADKFSITRAVTSRFKATKRLFDLTTHAGGSHRAMMAFGQLDRVMPLDILPTLLVRDLVVRDTDEAQALGALELDEEDLALCTFVCPGKYDFGRELRICLDIIEREG” the “soluble on expression in E. coli” value was “not soluble”.
For “VQASDRTWQSNFIRRWYFTETVEYRPLVKYDASMSWDERTVSALEGAFRSEVRARRVNGPHRDVIVSLDGAEFLVRWLTTGWPRQVAEALHATSRPDILAAPTMSPGARKAAHDAGVGWVDESGAADIHYRNTSTGTTLVIETKGAPPAPLDARIGWRRATLAVCEALLANIAGPTVASVVEATGLSMGSSAQALKFLEKNGHLASATARGPKSARLIVDRDALLDAYAEAADKLRSPISISTGVLWRDPTAGVVKAGQLWDAAGIEWAATSALSASLLAPMQTEIAPMEIYVPGRSWSDLRRAAMAAGLQEIAGGRLILRFFPTPACARLTEQNLQGFRSMLWPRVYADLRTAGVRGEDAAEHLREAMTK”, the “soluble on expression in E. coli” value was “not soluble”.
In the case of “ILGYSYGYNGMEANVSKSDYEKHMSDLDTKKIKQDIKKAEKEADITIVMPQMGIEYQKKPTTEQVMLYHSMIKWGADIIFGGHPHVVEPSEVIKKDGQKKFIIYSMGNFISNQRLETVDDIWTE”, the “soluble on expression in E. coli” value is reported as “not soluble”.
In the case of “SNAMQNRWAETKFDSDIDEVVYGSRLIGSDPDLVLHGGGNTSVKTTERDHAGRIISVLRVKNSGSNLGTIDSRGFTGIRMDDALAAAKIDKMTDEAMVDYLKKSMVNPSEPSPSVETFLHAFLPYKFVMHSHADAILSITNTDLPSDQIAKILGNVVVLPYIPPGFTLAKEVMNCFKKGIDGIVLRKHGLLTFGDTGKEAYDRHINIVSRAENFIREKTDGK”, the “soluble on expression in E. coli” value is reported as “soluble”.
In the case of “SLLASTRHIARGDTGNVSVRIRRVTTTRAGGVSAPPFDTFNLGDHVGDDPAAVAANRARLAAAIGLPGNRVVWMNQVHGDRVELVDQPRNTALDDTDGLVTATPRLALAVVTADCVPVLMADARAGIAAAVHAGRAGAQRGVVVRALEVMLSLGAQVRDISALLGPAVSGRNYEVPAAMADEVEAALPGSRTTTAAGTPGVDLRAGIACQLRDLGVESIDVDPRCTVADPTLFSHRRDAPTGRFASLVWME”, the “soluble on expression in E. coli” value is reported as “not soluble”.
